# Assay results taken from paper PMC10776578, “Epstein-Barr virus-driven B cell lymphoma mediated by a direct LMP1-TRAF6 complex” (Nature Communications, 2024).
# Residue numbers refer to the chain shown, from its start. Names and notes keep the numbering of the source. “Also recorded” adds a separate entry of the source.
# B1: R392A (protein, UniProt Q9Y4K3 1-522, looked up, variant R392A)
# TNF receptor-associated …: MSLLNCENSCGSSQSESDCCVAMASSCSAVTKDDSVGGTASTGNLSSSFMEEIQGYDVEFDPPLESKYECPICLMALREAVQTPCGHRFCKACIIKSIRDAGHKCPVDNEILLENQLFPDNFAKREILSLMVKCPNEGCLHKMELRHLEDHQAHCEFALMDCPQCQRPFQKFHINIHILKDCPRRQVSCDNCAASMAFEDKEIHDQNCPLANVICEYCNTILIREQMPNHYDLDCPTAPIPCTFSTFGCHEKMQRNHLARHLQENTQSHMRMLAQAVHSLSVIPDSGYISEVRNFQETIHQLEGRLVRQDHQIRELTAKMETQSMYVSELKRTIRTLEDKVAEIEAQQCNGIYIWKIGNFGMHLKCQEEEKPVVIHSPGFYTGKPGYKLCMALHLQLPTAQRCANYISLFVHTMQGEYDSHLPWPFQGTIRLTILDQSEAPVRQNHEEIMDAKPELLAFQRPTIPRNPKGFGYVTFMHLEALRQRTFIKDDTLLVRCEVSTRFDMGSLRREGFQPRSTDAGV
# B2: Y473A (protein, UniProt Q9Y4K3 1-522, looked up, variant Y473A)
# TNF receptor-associated …: B1 TNF receptor-associated … with A392R, Y473A
# B3: F471A (protein, UniProt Q9Y4K3 1-522, looked up, variant F471A)
# TNF receptor-associated …: B1 TNF receptor-associated … with A392R, F471A
# How the values were obtained:
# [1] = tested on: NF-κB in TRAF6^-/- MEFs; test: NF-κB reporter assay, TRAF6 rescue of CTAR2 signalling; type: cell-based, mouse; parameters: unit not given here
# Experimental: TRAF6^−/− cells (6 × 10^4) were seeded per well of a 6-well plate in DMEM full medium the day before transfection. Cells were transfected with 2 µg of the indicated pCMV-HA-LMP1 plasmids together with 0.5 µg of pRK5-Flag-TRAF6 plasmids or empty vector, 0.05 µg of NF-κB luciferase reporter 3xκB-Luc and 0.2 µg of pPGK-Renilla housekeeping control reporter using the PolyFect transfection reagent (Qiagen)[33]. After 4 h the transfection mix was removed, and the cells were kept overnight in DMEM full medium. NF-κB reporter and Renilla control activities were measured with the Dual-Luciferase reporter assay kit (Promega, #E1910) following the manufacturer’s instructions. Samples of each lysate were analyzed for LMP1 and TRAF6 expression by immunoblotting.
# [2] = tested on: HA-LMP1; test: Coimmunoprecipitation of HA-LMP1 with Flag-TRAF6 mutants in HEK293 cells; type: cell-based, Epstein-Barr virus; details: for coprecipitated HA-LMP1 signal (densitometry), mean: HEK293, mean of n = 3; for interaction of TRAF6 mutants with LMP1 in HEK293 cells (in words): coimmunoprecipitation
# Experimental: Immunoblotting was essentially performed as described. Proteins were detected on nitrocellulose membranes (Bio-Rad, #1620115) using the following primary antibodies: α−6*His-tag (clone 4A4 or 2F12, source: antibody facility of the Helmholtz Center Munich, hybridoma supernatants were used at a 1:10 dilution)[75], α-TRAF6 (H-274, Santa Cruz Biotech., #sc-7221, used at 1:1000), α-HA-tag (12CA5, Sigma-Aldrich, #11583816001, used at 0.4 µg per mL), α-IκBα (C-21, Santa Cruz Biotech., #sc-371, used at 1:500) and α-Tubulin (B-5-1-2, Santa Cruz Biotech., #sc-23948, used at 1:500). Horseradish peroxidase-coupled antibodies were used as secondary antibodies (Cell Signalling Technology, #7074 or #7076, respectively, both used at 1:5000). ECL signals were captured on X-ray films (Agfa Healthcare) and quantified by densitometry using the ImageJ software. Uncropped scans of immunoblots indicating molecular weights are provided in Supplementary Fig. 6.
# HEK293 cells were transfected with 1 µg of pRK5-Flag TRAF6 plasmids, 1 µg of pCMV-HA-LMP1 and 6 µg of pRK5 per 10 cm cell culture dish using PolyFect Transfection Reagent (Qiagen, #301107) in RPMI without supplements. Cells were incubated with the plasmid transfection mix for 4 h before the medium was changed to RPMI full medium. After 24 h, the cells were lysed in NP40-lysis buffer (50 mM HEPES pH 7.5, 150 mM NaCl, 5 mM EDTA, 0.5 mM sodium orthovanadate, 0.5 mM PMSF, 0.5 mM sodium molybdate, and cOmplete protease inhibitor cocktail). Lysates were cleared by centrifugation at 15000 x g for 10 min at 4 °C, and the protein concentration was adjusted to 1 mg per mL. For immunoprecipitation 4 mL of lysate was incubated with the α-Flag antibody 6F7 (Sigma-Aldrich, #F3165; covalently coupled to protein-G-Sepharose) for 1 h at 4 °C. The beads were pelleted at 15000 x g for 30 seconds at 4 °C, washed twice with NP40-lysis buffer, and analyzed by immunoblotting.
# [3] = tested on: HA-LMP1; test: Confocal immunofluorescence colocalization of Flag-TRAF6 with HA-LMP1 in HeLa cells; type: cell-based, Epstein-Barr virus; details: for colocalization with HA-LMP1 (in words): confocal microscopy; for colocalization of TRAF6 with LMP1, mean: mean of ten cells
# Experimental: HeLa cells were seeded onto cover glasses (Thermo Scientific, Menzel) in 24-well plates one day before transfection. Cells were transfected at 50–60% confluency with 50 ng of pCMV-HA-LMP1 plasmids and 100 ng of pRK5-Flag-TRAF6 plasmids, adjusted to a total of 500 ng DNA per sample with pRK5 empty vector, using Lipofectamine 2000 (Thermo Fisher Scientific) according to the manufacturer’s instructions. At 24 h posttransfection, cells were washed once with PBS and fixed with 4% paraformaldehyde (Sigma-Aldrich) for 20 min at RT, followed by permeabilization with 0.3% (v/v) Triton X-100 and blocking with 5% (v/v) FBS in PBS for 1 h at RT. For immunostaining, the cells were incubated overnight with the primary antibodies α-HA (1:1000, clone 16B12, BioLegend) and α-DYKDDDDK (1:1000, clone L5, BioLegend) at 4 °C. The secondary antibodies goat α-mouse Alexa 488 (1:500, cross-adsorbed, Invitrogen, #A-11029) and goat α-rat Alexa 555 (1:500, cross-adsorbed, Invitrogen, #A-21434) were added for 1.5 h at RT. Microscope slides were sealed with cover glasses using Mowiol mounting medium (Sigma-Aldrich). Nuclei were stained with Hoechst 33258 (Sigma-Aldrich). All samples were imaged using a Leica TCS SP5 confocal microscope with 405 nm, 488 nm, 543 nm or 633 nm laser lines, scanning each channel separately under image capture conditions that eliminated channel overlap. For each single experiment, 10 transfected cells positive for both constructs were randomly captured as single-cell images for quantification. The resulting images were then analyzed using the Leica TCS SP5 colocalization analyses application (LAS AF Version 2.7.3.9723). Analysis was performed with default parameters.
# [4] = tested on: GST-LMP1 Q381E; test: AlphaScreen PPI, TRAF6 mutants binding to LMP1 Q381E; parameters: species or system Epstein-Barr virus; details: for interaction with LMP1 Q381E (in words): AlphaScreen PPI, four independent experiments; for TRAF6 binding to LMP1 Q-E, AlphaScreen (relative), Supplementary Figure 2 a: mean of wt = 100; for TRAF6 binding to LMP1 Q-E, AlphaScreen (relative), mean: wt = 100, mean of n = 4
# Experimental: AlphaScreen experiments were performed in 96- or 384-well plates (Perkin Elmer, OptiPlate). In both assay formats, His-TRAF and GST-LMP1, GST-CD40, or GST-RANK proteins were incubated together in 40 µL of PBS (protein concentrations were calculated to the final reaction volume of 60 µL) supplemented with 0.5% BSA (Sigma, #A7030) and 0.1% Tween-20 (AppliChem, #A4974), for 1 h at room temperature (RT). If not indicated otherwise, standard protein concentrations were 300 nM for His-TRAF proteins and 100 nM for GST-LMP1 proteins. Ni-NTA-acceptor (Perkin Elmer, #6760619 C) and GST-acceptor (Perkin Elmer, # 6765300) beads were added each to a final concentration of 1–4 µg per mL in a final reaction volume of 60 µL and incubated for 1 h at RT in the dark. AlphaScreen PPI signals were measured in a CLARIOstar reader (BMG Labtech GmbH). […]
# Supplementary Figure 2. LMP1 Q381E interaction with TRAF6 and additional controls to
# experiments. Data are mean values ± SD of four independent experiments. Statistics: one -way
# ANOVA. p-values: ****p ≤ 0.0001. Source data in the Source Data file. […]
# [5] = with A204xAxA (CTAR2-specific signalling), replicate 1
# [6] = with A204xAxA/∆371-386 (inactive null control), replicate 1
# [7] = with A204xAxA/∆371-386, mean of n = 5
# [8] = with A204xAxA/∆371-386, replicate 2
# [9] = with A204xAxA/∆371-386, replicate 3
# [10] = with A204xAxA/∆371-386, replicate 4
# [11] = with A204xAxA/∆371-386, replicate 5
Molecule,"NF-κB reporter activity [1, 5]","NF-κB reporter activity, mean ([1]; with A204xAxA, mean of n = 5)","NF-κB reporter activity ([1]; with A204xAxA, replicate 2)","NF-κB reporter activity ([1]; with A204xAxA, replicate 3)","NF-κB reporter activity ([1]; with A204xAxA, replicate 4)","NF-κB reporter activity ([1]; with A204xAxA, replicate 5)","NF-κB reporter activity [1, 6]","NF-κB reporter activity, mean [1, 7]","NF-κB reporter activity [1, 8]","NF-κB reporter activity [1, 9]","NF-κB reporter activity [1, 10]","NF-κB reporter activity [1, 11]","coprecipitated HA-LMP1 signal (densitometry), mean [2]",interaction of TRAF6 mutants with LMP1 in HEK293 cells (in words) [2],colocalization with HA-LMP1 (in words) [3],"colocalization of TRAF6 with LMP1, mean [3]",interaction with LMP1 Q381E (in words) [4],"TRAF6 binding to LMP1 Q-E, AlphaScreen (relative), Supplementary Figure 2 a ([4]; replicate 1)","TRAF6 binding to LMP1 Q-E, AlphaScreen (relative), Supplementary Figure 2 a ([4]; replicate 2)","TRAF6 binding to LMP1 Q-E, AlphaScreen (relative), Supplementary Figure 2 a ([4]; replicate 3)",also measured
B1,29.9,25.57,20.3,24.4,30.5,22.7,23.3,17.45,12.6,15.1,21.7,14.7,2761976,abolished the TRAF6 interaction with LMP1,fail to interact with LMP1 wild-type clusters; also recorded: strongly decreased colocalization with HA-LMP1,16.72,fail to interact with LMP1 Q381E; also recorded: unable to override the negative effect of R392A mutation,8.4,4.1,6.1,"TRAF6 binding to LMP1 Q-E, AlphaScreen (relative), Supplementary Figure 2 a ([4]; replicate 4): 4.8; TRAF6 binding to LMP1 Q-E, AlphaScreen (relative), mean [4]: 5.85"
B2,17.9,16.74,12.1,18.2,20.7,14.7,21.7,17.54,12.1,17.7,21.8,14.3,5322536,abolished the TRAF6 interaction with LMP1,fail to interact with LMP1 wild-type clusters; also recorded: strongly decreased colocalization with HA-LMP1,24.45,,,,,
B3,22.4,20.18,16.8,19.1,26.3,16.3,22.3,19.11,23.1,15.5,21.1,13.4,5862061,abolished the TRAF6 interaction with LMP1,fail to interact with LMP1 wild-type clusters; also recorded: strongly decreased colocalization with HA-LMP1,13.45,fail to interact with LMP1 Q381E; also recorded: unable to override the negative effect,4.8,2.2,3.4,"TRAF6 binding to LMP1 Q-E, AlphaScreen (relative), Supplementary Figure 2 a ([4]; replicate 4): 2.2; TRAF6 binding to LMP1 Q-E, AlphaScreen (relative), mean [4]: 3.15"
